Experimental data: PMC13389011
“And” between values parts separate entries of the source, which are not always exact repeats. Identical values can stand only once.

Tests used:
[1] = tested on: Human insulin receptor ectodomain (HIR) (Homo sapiens), P06213-2+P06213-2; assay: ELONA; settings: DNA backbone, PBS (1.5 mM KH2PO4, 8.1 mM Na2HPO4, 2.7 mM KCl, 137 mM NaCl) with 5 mM MgCl2, pH 7.4, MST with 0.1% Pluronic F-127 at 25 C, FNBA at room temperature, high values mean tight binding
[2] = tested on: Human insulin receptor ectodomain (HIR) (Homo sapiens), P06213-2+P06213-2; assay: MST; settings: DNA backbone, PBS (1.5 mM KH2PO4, 8.1 mM Na2HPO4, 2.7 mM KCl, 137 mM NaCl) with 5 mM MgCl2, pH 7.4, MST with 0.1% Pluronic F-127 at 25 C, FNBA at room temperature, high values mean tight binding
[3] = target: Dog insulin receptor ectodomain (DIR) (dog) (UniProt A0A8I3PWD4); assay: MST; settings: phenyl-dU (rigid) and indole-dA (flexible) after nt 20; IB: PBS (1.5 mM KH2PO4, 8.1 mM Na2HPO4, 2.7 mM KCl, 137 mM NaCl) + 5 mM MgCl2, pH 7.4; MST +0.1% Pluronic F-127, 25 C; SPR 25 C; FNBA and BLI r.t.
[4] = tested on: Human insulin receptor ectodomain (HIR) (Homo sapiens), P06213-2; assay: MST; settings: IB: PBS (1.5 mM KH2PO4, 8.1 mM Na2HPO4, 2.7 mM KCl, 137 mM NaCl) + 5 mM MgCl2, pH 7.4, MST +0.1% Pluronic F-127, 25 C, SPR 25 C, FNBA and BLI r.t.
[5] = target: Human IGF-1R ectodomain (Homo sapiens) (UniProt P08069+P08069); assay: MST; settings: DNA backbone; 7-deaza-7-(indolyl-ethyl)-dA (dAAIn) at 27,28,32,33,35,39,48,51; 5-(phenyl-ethynyl)-dU (dUEPh) at 24,25,26,31,40,42,44,46,49,52,54; PBS (1.5 mM KH2PO4, 8.1 mM Na2HPO4, 2.7 mM KCl, 137 mM NaCl) with 5 mM MgCl2, pH 7.4; MST with 0.1% Pluronic F-127 at 25 C; FNBA at room temperature; high values mean tight binding
[6] = tested on: Human insulin receptor ectodomain (HIR) (Homo sapiens), P06213-2; assay: SPR; settings: after primer nt 1-20 every U = rigidly linked phenyl-dU and every A = flexibly linked indole-dA (nucleotides 1,2); DNA backbone; IB: PBS (1.5 mM KH2PO4, 8.1 mM Na2HPO4, 2.7 mM KCl, 137 mM NaCl) + 5 mM MgCl2, pH 7.4; MST +0.1% Pluronic F-127, 25 C; SPR 25 C; FNBA and BLI r.t.
[7] = target: T1, Cat insulin receptor ectodomain (CIR) (cat) (UniProt A0ABI7YJR5+A0ABI7YJR5); assay: ELONA; settings: DNA backbone; 7-deaza-7-(indolyl-ethyl)-dA (dAAIn) at 27,28,32,33,35,39,48,51; 5-(phenyl-ethynyl)-dU (dUEPh) at 24,25,26,31,40,42,44,46,49,52,54; PBS (1.5 mM KH2PO4, 8.1 mM Na2HPO4, 2.7 mM KCl, 137 mM NaCl) with 5 mM MgCl2, pH 7.4; MST with 0.1% Pluronic F-127 at 25 C; FNBA at room temperature; high values mean tight binding
[8] = target: T2, Dog insulin receptor ectodomain (DIR) (dog) (UniProt A0A8I3PWD4+A0A8I3PWD4); assay: ELONA; settings: DNA backbone; 7-deaza-7-(indolyl-ethyl)-dA (dAAIn) at 27,28,32,33,35,39,48,51; 5-(phenyl-ethynyl)-dU (dUEPh) at 24,25,26,31,40,42,44,46,49,52,54; PBS (1.5 mM KH2PO4, 8.1 mM Na2HPO4, 2.7 mM KCl, 137 mM NaCl) with 5 mM MgCl2, pH 7.4; MST with 0.1% Pluronic F-127 at 25 C; FNBA at room temperature; high values mean tight binding
[9] = tested on: Human insulin receptor ectodomain (HIR) (Homo sapiens), P06213-2; assay: BLI; settings: after primer nt 1-20 every U = rigidly linked phenyl-dU and every A = flexibly linked indole-dA (nucleotides 1,2); DNA backbone; IB: PBS (1.5 mM KH2PO4, 8.1 mM Na2HPO4, 2.7 mM KCl, 137 mM NaCl) + 5 mM MgCl2, pH 7.4; MST +0.1% Pluronic F-127, 25 C; SPR 25 C; FNBA and BLI r.t.
[10] = target: T1, Cat insulin receptor ectodomain (CIR) (cat); assay: MST; settings: DNA backbone; 7-deaza-7-(indolyl-ethyl)-dA (dAAIn) at 27,28,32,33,35,39,48,51; 5-(phenyl-ethynyl)-dU (dUEPh) at 24,25,26,31,40,42,44,46,49,52,54; PBS (1.5 mM KH2PO4, 8.1 mM Na2HPO4, 2.7 mM KCl, 137 mM NaCl) with 5 mM MgCl2, pH 7.4; MST with 0.1% Pluronic F-127 at 25 C; FNBA at room temperature; high values mean tight binding
[11] = target: T2, Dog insulin receptor ectodomain (DIR) (dog); assay: MST; settings: DNA backbone; 7-deaza-7-(indolyl-ethyl)-dA (dAAIn) at 27,28,32,33,35,39,48,51; 5-(phenyl-ethynyl)-dU (dUEPh) at 24,25,26,31,40,42,44,46,49,52,54; PBS (1.5 mM KH2PO4, 8.1 mM Na2HPO4, 2.7 mM KCl, 137 mM NaCl) with 5 mM MgCl2, pH 7.4; MST with 0.1% Pluronic F-127 at 25 C; FNBA at room temperature; high values mean tight binding
[12] = tested on: Human insulin receptor isoform A, native (IM-9 cells) (Homo sapiens), P06213-2+P06213-2; assay: competition with 125I-insulin; settings: after primer nt 1-20 every U = rigidly linked phenyl-dU and every A = flexibly linked indole-dA (nucleotides 1,2); DNA backbone; IB: PBS (1.5 mM KH2PO4, 8.1 mM Na2HPO4, 2.7 mM KCl, 137 mM NaCl) + 5 mM MgCl2, pH 7.4; MST +0.1% Pluronic F-127, 25 C; SPR 25 C; FNBA and BLI r.t.
Insulin (Homo sapiens) = Insulin (Homo sapiens) (UniProt P01308); assay: radioligand binding; settings: cited from earlier work
[13] = 7-deaza-7-(indolyl-ethyl)-dA (dAAIn) at 27,35,36,38,41,44,48,54, 5-(phenyl-ethynyl)-dU (dUEPh) at 21,22,23,32,33,37,40,45,46,50,53
[14] = 7-deaza-7-(indolyl-ethyl)-dA (dAAIn) at 27,28,32,33,35,39,48,51, 5-(phenyl-ethynyl)-dU (dUEPh) at 24,25,26,31,40,42,44,46,49,52,54
[15] = 7-deaza-7-(indolyl-ethynyl)-dA (dAEIn) at 27,28,32,33,35,39,48,51, 5-(phenyl-ethyl)-dU (dUAPh) at 24,25,26,31,40,42,44,46,49,52,54
[16] = 7-deaza-7-(indolyl-ethynyl)-dA (dAEIn) at 27,28,32,33,35,39,48,51, 5-(phenyl-ethynyl)-dU (dUEPh) at 24,25,26,31,40,42,44,46,49,52,54
[17] = 7-deaza-7-(indolyl-ethyl)-dA (dAAIn) at 27,28,32,33,35,39,48,51, 5-(phenyl-ethyl)-dU (dUAPh) at 24,25,26,31,40,42,44,46,49,52,54
[18] = 7-deaza-7-(phenyl-ethyl)-dA (dAAPh) at 27,28,32,33,35,39,48,51, 5-(phenyl-ethynyl)-dU (dUEPh) at 24,25,26,31,40,42,44,46,49,52,54

Chain of Human insulin receptor ectodomain (HIR) (Homo sapiens), P06213-2+P06213-2 (P06213 other isoform, or with tags, fused parts or gaps, chain 1 of 2): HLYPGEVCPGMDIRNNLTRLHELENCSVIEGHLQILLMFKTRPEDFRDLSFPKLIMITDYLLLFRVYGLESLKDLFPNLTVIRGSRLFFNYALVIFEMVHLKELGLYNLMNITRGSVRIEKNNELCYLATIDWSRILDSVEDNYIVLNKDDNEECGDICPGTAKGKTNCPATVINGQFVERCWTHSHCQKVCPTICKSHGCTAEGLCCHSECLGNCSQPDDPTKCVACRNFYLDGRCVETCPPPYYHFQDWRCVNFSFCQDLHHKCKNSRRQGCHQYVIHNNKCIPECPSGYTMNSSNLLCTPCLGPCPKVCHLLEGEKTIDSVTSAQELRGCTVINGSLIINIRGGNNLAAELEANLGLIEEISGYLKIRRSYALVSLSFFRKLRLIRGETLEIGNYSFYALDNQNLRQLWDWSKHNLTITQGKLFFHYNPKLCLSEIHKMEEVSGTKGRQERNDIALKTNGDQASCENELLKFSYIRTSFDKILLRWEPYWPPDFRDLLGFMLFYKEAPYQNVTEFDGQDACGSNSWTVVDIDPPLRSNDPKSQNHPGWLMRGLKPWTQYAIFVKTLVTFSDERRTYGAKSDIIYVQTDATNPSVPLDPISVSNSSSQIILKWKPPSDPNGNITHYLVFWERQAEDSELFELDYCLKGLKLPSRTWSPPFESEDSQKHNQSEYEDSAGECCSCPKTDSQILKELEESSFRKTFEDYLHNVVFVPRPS
Chain of Human insulin receptor ectodomain (HIR) (Homo sapiens), P06213-2+P06213-2 (P06213 763-956, chain 2 of 2): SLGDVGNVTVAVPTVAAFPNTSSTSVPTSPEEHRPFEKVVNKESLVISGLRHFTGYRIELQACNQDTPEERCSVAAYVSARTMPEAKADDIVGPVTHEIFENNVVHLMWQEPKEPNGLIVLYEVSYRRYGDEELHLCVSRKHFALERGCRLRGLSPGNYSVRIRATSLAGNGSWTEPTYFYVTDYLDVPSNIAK
Chain of Human insulin receptor ectodomain (HIR) (Homo sapiens), P06213-2 (P06213 other isoform, or with tags, fused parts or gaps): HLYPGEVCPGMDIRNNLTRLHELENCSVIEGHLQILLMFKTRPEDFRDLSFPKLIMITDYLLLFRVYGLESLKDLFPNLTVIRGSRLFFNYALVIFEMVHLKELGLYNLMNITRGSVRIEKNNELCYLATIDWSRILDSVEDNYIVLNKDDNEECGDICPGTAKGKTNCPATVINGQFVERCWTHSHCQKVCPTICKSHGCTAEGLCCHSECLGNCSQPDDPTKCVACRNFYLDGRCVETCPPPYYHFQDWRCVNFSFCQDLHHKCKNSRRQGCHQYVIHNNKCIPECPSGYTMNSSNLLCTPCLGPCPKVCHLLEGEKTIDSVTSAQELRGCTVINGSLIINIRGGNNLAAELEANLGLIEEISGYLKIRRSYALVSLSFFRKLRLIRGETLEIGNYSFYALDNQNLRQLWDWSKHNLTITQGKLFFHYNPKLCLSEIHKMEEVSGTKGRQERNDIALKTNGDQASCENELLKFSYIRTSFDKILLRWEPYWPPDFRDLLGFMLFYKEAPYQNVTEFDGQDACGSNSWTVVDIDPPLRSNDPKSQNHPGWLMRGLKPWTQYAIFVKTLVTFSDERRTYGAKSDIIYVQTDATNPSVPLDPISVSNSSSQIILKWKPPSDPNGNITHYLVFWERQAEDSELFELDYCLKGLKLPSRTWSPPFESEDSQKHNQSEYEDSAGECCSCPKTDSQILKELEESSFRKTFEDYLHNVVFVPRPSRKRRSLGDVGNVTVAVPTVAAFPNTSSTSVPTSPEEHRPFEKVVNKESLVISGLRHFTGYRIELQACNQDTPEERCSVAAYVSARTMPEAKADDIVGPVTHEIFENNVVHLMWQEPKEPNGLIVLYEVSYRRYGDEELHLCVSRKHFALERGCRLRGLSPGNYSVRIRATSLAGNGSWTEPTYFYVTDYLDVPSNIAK
T2 sequence (chain, as listed by the source, chain 1 of 2): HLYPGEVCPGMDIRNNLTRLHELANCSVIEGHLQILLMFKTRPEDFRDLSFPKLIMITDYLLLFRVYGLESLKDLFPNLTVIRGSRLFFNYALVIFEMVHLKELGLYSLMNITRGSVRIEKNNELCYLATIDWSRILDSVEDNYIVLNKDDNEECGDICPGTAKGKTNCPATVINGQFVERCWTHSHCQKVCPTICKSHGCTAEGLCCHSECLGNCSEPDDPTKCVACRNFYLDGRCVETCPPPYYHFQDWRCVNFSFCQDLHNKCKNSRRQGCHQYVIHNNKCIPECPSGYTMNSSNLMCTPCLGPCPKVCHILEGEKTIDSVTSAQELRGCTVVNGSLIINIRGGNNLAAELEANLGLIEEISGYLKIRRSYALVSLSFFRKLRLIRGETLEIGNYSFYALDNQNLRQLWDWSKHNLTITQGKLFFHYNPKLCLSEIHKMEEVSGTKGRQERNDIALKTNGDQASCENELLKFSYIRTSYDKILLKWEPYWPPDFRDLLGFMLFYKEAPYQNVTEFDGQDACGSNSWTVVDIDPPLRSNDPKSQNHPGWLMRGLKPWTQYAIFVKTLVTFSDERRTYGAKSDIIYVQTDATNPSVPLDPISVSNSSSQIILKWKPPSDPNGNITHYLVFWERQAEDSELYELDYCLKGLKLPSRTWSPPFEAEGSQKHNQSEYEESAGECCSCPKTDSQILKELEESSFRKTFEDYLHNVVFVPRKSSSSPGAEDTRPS
T2 sequence (chain, as listed by the source, chain 2 of 2): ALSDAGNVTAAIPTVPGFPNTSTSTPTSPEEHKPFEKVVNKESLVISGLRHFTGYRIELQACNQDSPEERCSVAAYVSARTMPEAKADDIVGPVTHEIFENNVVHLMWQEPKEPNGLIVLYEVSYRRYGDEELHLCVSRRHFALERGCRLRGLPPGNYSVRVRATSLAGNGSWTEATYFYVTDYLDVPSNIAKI
T1 sequence (chain, as listed by the source, chain 1 of 2): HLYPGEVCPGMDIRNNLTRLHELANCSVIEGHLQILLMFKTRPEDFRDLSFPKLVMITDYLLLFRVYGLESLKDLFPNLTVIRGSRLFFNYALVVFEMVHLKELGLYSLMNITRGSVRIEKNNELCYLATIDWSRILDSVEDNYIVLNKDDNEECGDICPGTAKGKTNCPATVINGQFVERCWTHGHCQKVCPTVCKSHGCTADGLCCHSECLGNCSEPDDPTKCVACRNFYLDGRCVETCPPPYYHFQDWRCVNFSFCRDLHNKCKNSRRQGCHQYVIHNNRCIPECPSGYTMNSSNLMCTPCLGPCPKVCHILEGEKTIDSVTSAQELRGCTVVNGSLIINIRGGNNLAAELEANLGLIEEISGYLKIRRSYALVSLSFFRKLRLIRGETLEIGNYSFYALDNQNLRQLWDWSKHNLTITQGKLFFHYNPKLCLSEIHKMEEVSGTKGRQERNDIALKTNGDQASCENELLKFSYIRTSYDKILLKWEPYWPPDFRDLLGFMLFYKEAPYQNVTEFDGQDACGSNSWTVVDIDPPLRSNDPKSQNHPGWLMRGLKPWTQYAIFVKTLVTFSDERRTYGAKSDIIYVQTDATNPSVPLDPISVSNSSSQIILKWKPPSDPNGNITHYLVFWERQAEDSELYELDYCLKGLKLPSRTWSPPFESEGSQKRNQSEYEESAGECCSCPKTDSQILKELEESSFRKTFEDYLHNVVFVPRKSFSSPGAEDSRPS
T1 sequence (chain, as listed by the source, chain 2 of 2): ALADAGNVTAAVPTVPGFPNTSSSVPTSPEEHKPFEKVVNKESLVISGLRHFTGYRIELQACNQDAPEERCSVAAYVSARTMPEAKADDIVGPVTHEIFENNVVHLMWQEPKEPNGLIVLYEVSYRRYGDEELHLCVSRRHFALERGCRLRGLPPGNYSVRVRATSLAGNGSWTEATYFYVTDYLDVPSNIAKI
Chain of Dog insulin receptor ectodomain (DIR) (dog) (UniProt A0A8I3PWD4) (A0A8I3PWD4 entry or part of it): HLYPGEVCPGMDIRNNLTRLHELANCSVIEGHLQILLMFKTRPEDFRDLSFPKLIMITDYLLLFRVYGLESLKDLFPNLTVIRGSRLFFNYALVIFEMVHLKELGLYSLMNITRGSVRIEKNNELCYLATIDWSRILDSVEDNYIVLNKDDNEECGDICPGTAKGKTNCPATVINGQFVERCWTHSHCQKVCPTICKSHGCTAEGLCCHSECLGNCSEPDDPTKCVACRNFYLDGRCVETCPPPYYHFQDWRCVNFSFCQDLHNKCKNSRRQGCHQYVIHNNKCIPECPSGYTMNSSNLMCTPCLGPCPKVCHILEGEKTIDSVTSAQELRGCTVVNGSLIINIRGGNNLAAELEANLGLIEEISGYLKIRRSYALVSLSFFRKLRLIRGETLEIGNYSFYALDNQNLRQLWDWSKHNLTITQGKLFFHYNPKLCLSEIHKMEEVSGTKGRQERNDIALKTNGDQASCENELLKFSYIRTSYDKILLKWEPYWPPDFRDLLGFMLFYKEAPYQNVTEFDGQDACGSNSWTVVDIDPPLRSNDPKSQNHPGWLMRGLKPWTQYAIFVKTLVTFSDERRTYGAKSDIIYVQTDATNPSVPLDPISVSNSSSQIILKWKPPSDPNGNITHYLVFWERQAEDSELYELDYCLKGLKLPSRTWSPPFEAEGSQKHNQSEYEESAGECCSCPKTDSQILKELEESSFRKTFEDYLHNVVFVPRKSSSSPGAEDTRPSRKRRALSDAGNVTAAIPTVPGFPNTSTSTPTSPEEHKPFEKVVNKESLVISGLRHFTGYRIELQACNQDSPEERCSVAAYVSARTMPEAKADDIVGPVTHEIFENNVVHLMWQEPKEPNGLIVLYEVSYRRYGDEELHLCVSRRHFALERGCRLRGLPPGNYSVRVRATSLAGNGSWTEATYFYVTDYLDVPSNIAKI
Chain of Insulin (Homo sapiens) (P01308 90-110): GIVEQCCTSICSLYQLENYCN

**Q.** What does the source list for “ACTGCACCTGGCCTTTAACTUUUCGCACGCGUUGAAUACUACCAUUGAGUCGUAG [HIR_SC]”?
**A.** binding signal (a.u. fluorescence) [1, 13]: 266; binding (delta Fnorm (per mille)) [2, 13]: -1.14

**Q.** Which Kd [3] does the source give for “CAACTTCTACCGGTCCATGTUUGUGAUGCCGACAGCUAGCAGCAAGUAAACGGUC [DIR-5]” here?
**A.** 19.2 nM

**Q.** For “CATGACGCTCACTGTATCTCGCCUUUAACGUAAGAGCGAUGUCUCUCAUGAUGUC [HIR-8]”, which binding signal (a.u. fluorescence) [1, 14] is on record?
**A.** 34500

**Q.** And the Kd ([4]; as HIR-6: phenyl-dU (rigid) and indole-dA (flexible) after nt 20)?
**A.** 11.7 nM

**Q.** And the binding (delta Fnorm (per mille)) [5]?
**A.** -0.562

**Q.** What about the binding (delta Fnorm (per mille)) [2, 14] of the same substance?
**A.** 24.8

**Q.** With “CATGACGCTCACTGTATCTCGCGTTTAACGUAACAGCGAUGUCUCUCAUGAUGUC [HIR-6_M1]” as the substance, how does the binding signal (a.u. fluorescence) ([1]; 7-deaza-7-(indolyl-ethyl)-dA (dAAIn) at 32,33,35,39,48,51, 5-(phenyl-ethynyl)-dU (dUEPh) at 31,40,42,44,46,49,52,54) read?
**A.** 205

**Q.** With “CATGACGCTCACTGTATCTCGCGUUUAACGUAACAGCGAUGUCUCUCAUGAUGUC [HIR-6]” as the substance, how does the Kd [6] read?
**A.** 0.306 nM

**Q.** What about the binding signal (a.u. fluorescence) [7] of the same substance?
**A.** 164

**Q.** What about the binding signal (a.u. fluorescence) [8] of the same substance?
**A.** 272

**Q.** What about the binding signal (a.u. fluorescence) [1, 14] of the same substance?
**A.** 45800 and 39500 and 44800

**Q.** And the Kd [9]?
**A.** 0.137 nM

**Q.** And the Kd ([4]; after primer nt 1-20 every U = rigidly linked phenyl-dU and every A = flexibly linked indole-dA (nucleotides 1,2), DNA backbone)?
**A.** 2.25 nM

**Q.** What about the binding (delta Fnorm (per mille)) [10] of the same substance?
**A.** -0.745

**Q.** And the binding (delta Fnorm (per mille)) [11]?
**A.** -1.86

**Q.** And the binding (delta Fnorm (per mille)) [5]?
**A.** 3.56

**Q.** And the binding (delta Fnorm (per mille)) [2, 14]?
**A.** 38.1

**Q.** And the Ki [12]?
**A.** 68.8 nM

**Q.** Which results are given for “CATGACGCTCACTGTATCTCGCGUUUAACGUAACAGCGAUGUCUCUCAUGAUGUC [HIR-6_V1]”?
**A.** binding signal (a.u. fluorescence) [1, 15]: 742; binding (delta Fnorm (per mille)) [2, 15]: -0.274

**Q.** For “CATGACGCTCACTGTATCTCGCGUUUAACGUAACAGCGAUGUCUCUCAUGAUGUC [HIR-6_V2]”, which binding signal (a.u. fluorescence) [1, 16] is on record?
**A.** 644

**Q.** What about the binding (delta Fnorm (per mille)) [2, 16] of the same substance?
**A.** 1.86

**Q.** What does the source list for “CATGACGCTCACTGTATCTCGCGUUUAACGUAACAGCGAUGUCUCUCAUGAUGUC [HIR-6_V3]”?
**A.** binding signal (a.u. fluorescence) [1, 17]: 196; binding (delta Fnorm (per mille)) [2, 17]: -3.35

**Q.** What does the source list for “CATGACGCTCACTGTATCTCGCGUUUAACGUAACAGCGAUGUCUCUCAUGAUGUC [HIR-6_V4]”?
**A.** binding signal (a.u. fluorescence) [1, 18]: 195; binding (delta Fnorm (per mille)) [2, 18]: -1.7

**Q.** For Insulin receptor (from UniProt P06213), which Kd (Insulin (Homo sapiens)) is on record?
**A.** 0.3 nM
